Reference: US20160177324A1, “NOVEL PROTEIN AND GENE RELATED TO FLAVONOID O-METHYLTRANSFERASE (FOMT) AND THEIR USES THEREFORE” (INSTITUTE OF BOTANY, THE CHINESE ACADEMY OF SCIENCES, priority 2013, published 2016)

Assays:
[1] = Comparison of activities among recombinant polypeptides with site mutagenesis; type: biochemical; conditions: for Activity (%), portion of recombinant protein activity compared with PsFOMT: Cy3G5G as substrate
Procedure: The reaction system was according to Hugueney et al. with some modification (Hugueney, P., et al., A novel cation-dependent O-methyltransferase involved in anthocyanin methylation in grapevine. Plant Physiology, 2009. 150(4): p. 2057-2070.). Purified recombinant FOMT (2 μg) was assayed in a final volume of 200 μL containing 200 μM SAM, 1 mM MgCl2, 14 mM β-mercaptoethanol, 100 mM Tris, pH 7.5, and 20 μM flavonoid substrates. Incubation was performed at 35° C. and stopped with 200 μL methanol containing 2% formic acid. For enzyme kinetic studies, purified FOMT was incubated based on the above condition with the exception that a range of substrate concentrations from 5 to 200 μM were used for Km determination. Reaction product was analyzed by a Dionex HPLC system (Sunnyvale, Calif.), equipped with a P680 HPLC pump, an UltiMate 3000 autosampler, a TCC-100 thermostated column compartment and a Dionex PDA100 photodiode array detector. The analytical column was C18 column of ODS 80Ts QA (150 mm×4.6 mm, 5 μm i.d., Tosoh, Tokyo) protected with a C18 guard cartridge (Shanghai ANPEL Scientific Instrument, Shanghai). The following solvent and gradient were used: A, 10% aqueous formic acid; B, methanol; constant gradient from 10 to 36% B within 15 min and back to 10% B in 3 min; the flow rate was 0.8 mL min^−1; Column temperature was maintained at 35° C.; 20 μL of analyte was injected. Chromatograms were obtained at 525 nm for anthocyanins and 350 nm for other flavonoids, and photodiode array spectra were recorded from 200 to 800 nm. Km and Vmax values were calculated from Lineweaver-Burk plots.
To validate the key amino acid responsible for the activity, site-directed mutagenesis was carried out using the PCR method and Fast Mutagenesis System (TransGen), and primer sequences used are given in Table 1. Four constructs were built following the template sequence of PtFOMT, named as PtFOMT-G13E, PtFOMT-T85A, PtFOMT-R87L, and PtFOMT-T205R. The corresponding recombinant proteins were purified and the catalytic activities were examined. […] The other mutants have no significant improved activity compared with PtFOMT. The leucine at 87-position is a vital residue for the methyltransferase activity.

[2] = tested on: Nicotiana tabacum cv.Nc89; assay: Flavonoid O-methyltransferase activity in transgenic tobacco; type: in vivo
Text: The full length genes were introduced with a BamHl site and an XhoI site on 5′- and 3′-end by PCR with primers SEQ No. 5 & 6. The double digested fragment of interest and eukaryotic expression vector pBI121 with BamHl site and an XhoI were ligated. Then the appropriate constructs were introduced into Agrobacterium strain EHA105 by electroporation.
Leaf of Nicotiana tabacum cv.Nc89 plant (Donated by Professor Silan Dai, Beijing Forestry University) was disinfected by 75% ethanol for 30 s, followed by 2% sodium hypochlorite for 3 minutes, and then washed with sterile water for three times. The leaf was cut into squares (25 mm^2) A single colony of Agrobacterium strain EHA105 with pBI121-FOMT construct was used to inoculate with 2 mL of YEB medium (per liter: 5 g of beef extract, 1 g of yeast extract, 5 g of sucrose, and 0.5 g of MgSO4.7H2O), supplemented with 50 mg mL^−1 kanamycin and 25 mg mL^−1 Rifampicin. The culture was incubated at 28° C. until OD600 0.6-0.8, and the bacteria were pelleted by centrifugation at 5000 rpm for 5 minutes. The cells were washed by MS liquid medium and resuspended pellets with appropriate volume of MS liquid. The tobacco leaf squares were dipped into the bacteria solution for 8 minutes and cultivated on MS media containing 2.0 mg L^−1 6-benzylaminopurine (6-BA), 0.2 mg L^−1 1-naphthylacetic acid (NAA), and 500 mg L^−1 ceflomine. The explants were transferred to fresh selected medium after two weeks. When the regenerating plantlets grow to 2 cm, move them to MS media containing 0.2 mg L^−1 NAA to induce root. After four weeks, the transgenic tobacco plantlets were transferred to pots and kept in the greenhouse till flowering. The positive transgenic lines were selected by PCR, and transgenic plantlets with empty plasmid were used as control. The anthocyanins in transgenic petals were detected with an HPLC system.
Appropriate amount of sample (petal, fruits) was powdered with mortars and pestles and extracted for the first time with 2 mL 2% (v/v) formic acid methanol solution shaken in a QL-861 vortex (Kylinbell Lab Instruments, Jiangsu, China), sonicated in KQ-500DE ultrasonic cleaner (Ultrasonic instruments, Jiangsu Kunshan, China) at 20° C. for 20 min, centrifuged in SIGMA 3K30 (SIGMA centrifugers, Germany) (12000 rpm, 10 min), and the supernatant was collected. Additional 2 mL and 1 mL extraction solution was supplemented to the residue, and repeated aforesaid operation for the second and third times. All extract was pooled and filtrated through 0.22 μm reinforced nylon membrane filters (Shanghai ANPEL, Shanghai, China) before the HPLC-DAD and HPLC-ESI-MS^n analyses. Three replicates were performed for each sample. […]
HPLC-ESI-MS^n analysis was carried with an Agilent-1100 HPLC system equipped with a UV detector coupled to a LC-MSD Trap VL ion-trap mass spectrometer via an ESI source (Agilent Technologies, Palo Alto, Calif.). […] The MS conditions were listed as follow: negative-ion (NI) mode; capillary voltage of 3.5 kV; a nebulization pressure of 241.3 kPa; and a gas (N2) temperature of 350° C. with flow rate of 6.0 L min^−1 Capillary offset voltage was 77.2 V. MS spectra were recorded over the range from m/z 50-1000.

| Molecule | Activity (%), portion of recombinant protein activity compared with PsFOMT ([1]; Incubation 5 min) | Activity (%), portion of recombinant protein activity compared with PsFOMT ([1]; Incubation 30 min) | flower color compared with control lines ([2]; transgenic tobacco flowers) | methyltransferase function in tobacco petal (new anthocyanin Pn3R detected) ([2]; transgenic tobacco petals vs empty vector) | catalytic activity of site-directed mutants ([1]; recombinant purified proteins) |
| --- | --- | --- | --- | --- | --- |
| PtFOMT: similar O-methyltransferase cloned from Paeonia tenuifolia, SEQ ID NO: 4; differs from PsFOMT at positions 13, 85, 87, 205 (protein, listed as Paeonia tenuifolia) MAESDRKGILKSGALLKYILETSVYPREHEQLKQLRQATVDKYKYWSVMNVPADEGQFLSMLLKIMNAKKTIEVGVFTGYSLLTTARALPTDAKITAIDPDGEAYETGLPFIKKAGVEHKINYIQADAMSVLDDLVTNGKEEGSFDFAFVDADKENYAKYHEPLMKLVKIGGIIGYDNTLWFGSVALSDGDEMKEFQEKGRRIFTEFNTFLAADPRIELAHISIGDGLALCRRLY | 0% | 4.2% | no obvious difference | performed as a methyltransferase |  |
| PtFOMT-R87L: site-directed mutant of PtFOMT, R87L (protein) MAESDRKGILKSGALLKYILETSVYPREHEQLKQLRQATVDKYKYWSVMNVPADEGQFLSMLLKIMNAKKTIEVGVFTGYSLLTTALALPTDAKITAIDPDGEAYETGLPFIKKAGVEHKINYIQADAMSVLDDLVTNGKEEGSFDFAFVDADKENYAKYHEPLMKLVKIGGIIGYDNTLWFGSVALSDGDEMKEFQEKGRRIFTEFNTFLAADPRIELAHISIGDGLALCRRLY | 100.7% | 104.5% |  |  | regain the activity equal to PsFOMT |
| PtFOMT-T205R: site-directed mutant of PtFOMT, T205R (protein) MAESDRKGILKSGALLKYILETSVYPREHEQLKQLRQATVDKYKYWSVMNVPADEGQFLSMLLKIMNAKKTIEVGVFTGYSLLTTARALPTDAKITAIDPDGEAYETGLPFIKKAGVEHKINYIQADAMSVLDDLVTNGKEEGSFDFAFVDADKENYAKYHEPLMKLVKIGGIIGYDNTLWFGSVALSDGDEMKEFQEKGRRIFREFNTFLAADPRIELAHISIGDGLALCRRLY | 0% | 38.1% |  |  |  |
| PtFOMT-G13E: site-directed mutant of PtFOMT, G13E (protein) MAESDRKGILKSEALLKYILETSVYPREHEQLKQLRQATVDKYKYWSVMNVPADEGQFLSMLLKIMNAKKTIEVGVFTGYSLLTTARALPTDAKITAIDPDGEAYETGLPFIKKAGVEHKINYIQADAMSVLDDLVTNGKEEGSFDFAFVDADKENYAKYHEPLMKLVKIGGIIGYDNTLWFGSVALSDGDEMKEFQEKGRRIFTEFNTFLAADPRIELAHISIGDGLALCRRLY | 0% | 18.5% |  |  |  |
| PtFOMT-T85A: site-directed mutant of PtFOMT, T85A (protein) MAESDRKGILKSGALLKYILETSVYPREHEQLKQLRQATVDKYKYWSVMNVPADEGQFLSMLLKIMNAKKTIEVGVFTGYSLLTAARALPTDAKITAIDPDGEAYETGLPFIKKAGVEHKINYIQADAMSVLDDLVTNGKEEGSFDFAFVDADKENYAKYHEPLMKLVKIGGIIGYDNTLWFGSVALSDGDEMKEFQEKGRRIFTEFNTFLAADPRIELAHISIGDGLALCRRLY | 0% | 14.0% |  |  |  |
